Experiment [1] addresses T1, NFKB inhibitor beta, transcript variant 1 (human, UniProt Q15653 1-356).
T1 construct: also called NFKBIB
T1 sequence: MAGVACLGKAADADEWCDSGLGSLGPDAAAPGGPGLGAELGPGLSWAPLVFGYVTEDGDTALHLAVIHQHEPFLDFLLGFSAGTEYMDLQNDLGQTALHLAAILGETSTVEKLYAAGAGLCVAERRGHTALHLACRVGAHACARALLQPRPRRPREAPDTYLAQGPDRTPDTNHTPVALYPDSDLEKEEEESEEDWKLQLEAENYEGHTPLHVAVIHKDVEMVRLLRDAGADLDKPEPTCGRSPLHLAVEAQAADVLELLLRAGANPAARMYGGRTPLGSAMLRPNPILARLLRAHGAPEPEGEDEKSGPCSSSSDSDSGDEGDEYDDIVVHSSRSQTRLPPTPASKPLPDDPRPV

In experiment [2] the target is T2, cyclin dependent kinase 2 associated protein 2, transcript variant 1 (human, UniProt O75956 1-126).
T2 construct: also called CDK2AP2
T2 sequence: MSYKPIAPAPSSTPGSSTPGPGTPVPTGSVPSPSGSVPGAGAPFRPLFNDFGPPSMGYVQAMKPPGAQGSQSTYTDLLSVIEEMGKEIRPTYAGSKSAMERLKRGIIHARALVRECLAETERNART

Experiment [3] has as its target T3, calcium and integrin binding 1, transcript variant b (human, UniProt Q99828 2-191).
T3 construct: also called CIB1
T3 sequence: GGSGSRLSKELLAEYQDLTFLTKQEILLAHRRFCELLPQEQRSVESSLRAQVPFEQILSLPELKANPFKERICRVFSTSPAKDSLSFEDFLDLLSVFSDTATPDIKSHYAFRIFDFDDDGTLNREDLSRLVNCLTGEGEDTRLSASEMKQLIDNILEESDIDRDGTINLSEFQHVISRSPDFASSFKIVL

In experiment [4] the target is T4, HAUS augmin like complex subunit 1, transcript variant 1 (human, UniProt Q96CS2 1-278).
T4 construct: also called HAUS1
T4 sequence: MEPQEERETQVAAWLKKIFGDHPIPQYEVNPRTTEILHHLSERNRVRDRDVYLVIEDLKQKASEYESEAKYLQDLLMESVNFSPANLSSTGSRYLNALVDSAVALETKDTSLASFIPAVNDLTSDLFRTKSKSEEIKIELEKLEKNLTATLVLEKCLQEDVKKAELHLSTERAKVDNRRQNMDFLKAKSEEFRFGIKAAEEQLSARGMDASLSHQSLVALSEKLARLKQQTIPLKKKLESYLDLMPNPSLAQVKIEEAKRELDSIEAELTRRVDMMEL

For experiment [5], the target named is BCL2 apoptosis regulator, transcript variant alpha (human, UniProt P10415 1-239).
Chain of BCL2 apoptosis regulator, transcript variant alpha (P10415 whole entry, change not shown): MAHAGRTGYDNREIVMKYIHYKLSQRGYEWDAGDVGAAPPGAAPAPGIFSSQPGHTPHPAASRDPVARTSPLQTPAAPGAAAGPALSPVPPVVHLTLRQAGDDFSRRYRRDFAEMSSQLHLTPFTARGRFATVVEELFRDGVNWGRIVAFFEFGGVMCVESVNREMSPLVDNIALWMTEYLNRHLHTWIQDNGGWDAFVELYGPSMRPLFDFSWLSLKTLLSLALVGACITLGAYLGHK
For experiment [6], the target named is T5, C-X-C motif chemokine receptor 4, transcript variant 2 (human, UniProt P61073 1-352).
T5 construct: also called CXCR4
T5 sequence (P61073 whole entry, change not shown): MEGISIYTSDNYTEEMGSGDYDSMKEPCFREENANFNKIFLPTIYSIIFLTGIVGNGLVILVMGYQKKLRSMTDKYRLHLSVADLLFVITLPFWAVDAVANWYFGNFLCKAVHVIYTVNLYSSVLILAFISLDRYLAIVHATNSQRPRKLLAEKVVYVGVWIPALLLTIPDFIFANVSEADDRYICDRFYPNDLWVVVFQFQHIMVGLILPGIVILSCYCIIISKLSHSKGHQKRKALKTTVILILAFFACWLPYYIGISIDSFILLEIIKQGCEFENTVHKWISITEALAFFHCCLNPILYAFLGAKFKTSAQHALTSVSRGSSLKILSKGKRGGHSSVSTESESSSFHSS

Experiment [7] addresses T6, Long intergenic non-protein coding rna 242 (human, UniProt Q5T6M2 1-205).
T6 construct: also called LINC00242
T6 chain: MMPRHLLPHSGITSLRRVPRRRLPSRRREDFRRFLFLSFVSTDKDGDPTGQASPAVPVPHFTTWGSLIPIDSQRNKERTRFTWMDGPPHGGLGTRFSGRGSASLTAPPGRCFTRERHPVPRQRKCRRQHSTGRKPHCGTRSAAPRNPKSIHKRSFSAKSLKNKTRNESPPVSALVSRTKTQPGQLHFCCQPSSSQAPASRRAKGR

Experiment [8] deals with T7, transforming growth factor beta induced (human, UniProt Q15582 24-683, limits assumed).
T7 construct: also called TGFBI
T7 sequence: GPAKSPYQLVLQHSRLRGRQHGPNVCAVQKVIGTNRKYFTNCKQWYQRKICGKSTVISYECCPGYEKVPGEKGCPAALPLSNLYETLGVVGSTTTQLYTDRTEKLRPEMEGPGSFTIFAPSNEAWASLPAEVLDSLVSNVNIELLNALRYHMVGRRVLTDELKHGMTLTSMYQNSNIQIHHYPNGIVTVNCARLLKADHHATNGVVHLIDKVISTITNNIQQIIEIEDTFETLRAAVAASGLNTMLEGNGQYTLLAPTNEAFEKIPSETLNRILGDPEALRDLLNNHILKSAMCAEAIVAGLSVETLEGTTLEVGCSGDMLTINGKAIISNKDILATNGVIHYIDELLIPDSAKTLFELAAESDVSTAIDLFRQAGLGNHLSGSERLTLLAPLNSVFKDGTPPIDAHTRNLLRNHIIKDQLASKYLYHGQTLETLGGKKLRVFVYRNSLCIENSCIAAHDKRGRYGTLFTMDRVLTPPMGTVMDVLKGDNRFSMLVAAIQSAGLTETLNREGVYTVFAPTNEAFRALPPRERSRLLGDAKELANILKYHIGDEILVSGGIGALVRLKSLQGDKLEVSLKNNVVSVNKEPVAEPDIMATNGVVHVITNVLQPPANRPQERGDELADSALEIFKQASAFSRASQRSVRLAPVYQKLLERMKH

The target in another experiment is T8, chymotrypsinogen B2 (human, UniProt Q6GPI1 19-263, limits assumed).
T8 construct: also called CTRB2
T8 sequence (Q6GPI1 19-263 limits assumed): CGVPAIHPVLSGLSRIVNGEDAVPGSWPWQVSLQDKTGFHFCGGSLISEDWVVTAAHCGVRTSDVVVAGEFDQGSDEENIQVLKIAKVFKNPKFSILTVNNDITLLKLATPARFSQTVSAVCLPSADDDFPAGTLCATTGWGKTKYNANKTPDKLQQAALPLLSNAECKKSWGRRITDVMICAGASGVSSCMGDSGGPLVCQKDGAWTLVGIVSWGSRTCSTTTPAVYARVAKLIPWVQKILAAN

Another experiment concerns the target T9, programmed cell death 1 (human, UniProt Q15116 25-288, limits assumed).
T9 construct: also called PDCD1

The target in experiment [9] is T10, phosphoglucomutase 2 like 1 (human, UniProt Q6PCE3 1-622 at identity 1.00), limits assumed).
T10 construct: also called PGM2L1
T10 sequence: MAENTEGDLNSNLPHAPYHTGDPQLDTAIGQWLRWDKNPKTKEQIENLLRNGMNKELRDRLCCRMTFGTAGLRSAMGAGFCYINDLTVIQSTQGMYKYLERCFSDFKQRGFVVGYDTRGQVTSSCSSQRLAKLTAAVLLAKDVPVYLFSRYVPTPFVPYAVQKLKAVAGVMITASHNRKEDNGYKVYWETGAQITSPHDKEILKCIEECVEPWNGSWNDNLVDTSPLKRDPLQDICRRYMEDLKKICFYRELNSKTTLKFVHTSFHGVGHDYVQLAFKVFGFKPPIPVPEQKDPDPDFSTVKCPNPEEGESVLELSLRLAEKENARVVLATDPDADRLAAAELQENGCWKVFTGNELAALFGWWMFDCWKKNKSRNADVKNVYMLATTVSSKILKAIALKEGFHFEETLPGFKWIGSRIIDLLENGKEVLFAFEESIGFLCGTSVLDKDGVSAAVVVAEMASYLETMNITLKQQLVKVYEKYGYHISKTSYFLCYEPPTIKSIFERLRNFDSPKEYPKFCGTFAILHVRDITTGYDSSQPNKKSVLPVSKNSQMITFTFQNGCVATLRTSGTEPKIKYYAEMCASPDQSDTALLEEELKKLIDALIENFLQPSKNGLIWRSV

In experiment [10] the target is T11, Transforming growth factor beta 3 (human, UniProt P10600 24-412).
T11 construct: also called TGFB3
T11 sequence: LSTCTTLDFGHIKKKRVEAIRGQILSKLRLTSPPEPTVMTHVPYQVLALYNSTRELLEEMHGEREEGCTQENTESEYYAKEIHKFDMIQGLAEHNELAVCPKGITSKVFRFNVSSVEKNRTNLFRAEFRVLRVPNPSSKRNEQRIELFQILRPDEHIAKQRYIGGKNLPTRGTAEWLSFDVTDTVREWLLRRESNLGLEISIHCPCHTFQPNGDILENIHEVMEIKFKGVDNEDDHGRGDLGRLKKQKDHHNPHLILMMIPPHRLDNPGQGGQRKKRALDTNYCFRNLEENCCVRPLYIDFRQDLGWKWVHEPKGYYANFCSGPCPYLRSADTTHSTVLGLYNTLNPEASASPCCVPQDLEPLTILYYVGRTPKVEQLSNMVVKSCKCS

T9 sequence (Q15116 25-288 limits assumed): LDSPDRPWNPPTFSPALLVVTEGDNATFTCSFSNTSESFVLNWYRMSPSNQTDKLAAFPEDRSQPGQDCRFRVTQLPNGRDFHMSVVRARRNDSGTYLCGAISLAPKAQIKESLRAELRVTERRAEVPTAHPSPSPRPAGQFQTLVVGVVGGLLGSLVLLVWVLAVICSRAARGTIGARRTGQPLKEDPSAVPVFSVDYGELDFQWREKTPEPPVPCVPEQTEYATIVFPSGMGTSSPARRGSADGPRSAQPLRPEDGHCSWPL

B1: TSTO1005 (antibody, V domains shown)
VH: EVQLVESGGGVVQPGGSLRLSCAASGFTFEDFGMHWVRQAPGKGLEWVAFTRFDGSEKYYVDSVKGRFTVSRDNSKNTLFLHMNSLRPEDTAVYYCAKTRSYSSADTTRPNAPGYWGQGTLVTVSS
VL: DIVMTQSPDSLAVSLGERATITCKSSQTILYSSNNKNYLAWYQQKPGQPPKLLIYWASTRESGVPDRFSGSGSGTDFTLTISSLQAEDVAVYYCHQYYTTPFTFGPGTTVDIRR
B1: the binding result in experiment [1] and in experiment [2] was “binds” each time.

B2: TSTO1001 (antibody, V domains shown)
VH: VVQLLESGGGLVHPGGSLRISCAASEFTFSAYAMTWVRQAPGKGLEWVSAISGSGGRTYYADSLKGRFTISRDNSKHTLYLLMNSLRVEDTAVYYCASRYRSPSGAFDIWGQGTLVTVSS
VL: EIVMTQSPATLSVSQGERATLSCRASQSVGSDLAWYQQKPGQAPRLLIYDASARATDIPARFSGSGSETEFTLTISSLQSEDFAVYYCQHYSDWRALTFGGGTKVEIKR
Take B2: the binding result in experiment [3] is “binds”.

B3: TSTO1002 (antibody, V domains shown)
VH: EVQLVESGGGLVKPGGSLRLSCAASGFTFSNAWMNWVRQTPGKGLEWVGRIKTKTDGGTTDYAEPVKGRFTISRDDSKNTLYLQMNSLKTEDTAVYYCTRGAVADYWGQGTQVTVSS
VL: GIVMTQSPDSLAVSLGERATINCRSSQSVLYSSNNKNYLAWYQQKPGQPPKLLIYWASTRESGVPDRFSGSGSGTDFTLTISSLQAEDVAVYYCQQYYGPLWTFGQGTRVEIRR
Regarding B3, the binding result in experiment [4] is “binds”.

B4: TSTO1010 (antibody, V domains shown)
VH: EVQLVESGGGLVKPRGSLRLSCAASGFTFSAYGMNWVRQAPGKGLEWVSSISGDSRDIYYGASMKGRFTISRDNAKSSLYLQMNSLRAEDTAVYYCARGEGGELWAFDYWGLGVLVTVSS
VL: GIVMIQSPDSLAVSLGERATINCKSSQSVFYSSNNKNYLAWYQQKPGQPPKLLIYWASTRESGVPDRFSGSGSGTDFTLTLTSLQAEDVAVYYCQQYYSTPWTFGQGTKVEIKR
For the molecule B4, the binding result in [5] is on record as “binds”.

B5: TSAR1006 (antibody, V domains shown)
VH: QVQLVQSGTEVKKPGASVKVSCKASGYRFTSNGISWVRQAPGQGLQWMGWISTDSGNTNYAQSFQGRVTLTRDTSTNTAYLELRRLRSEDTAVYYCARDKSWYFDYWGQGTLVSVSS
VL: SYELTQPPSVSVSPGQTARITCSGDALPKKYVFWYQQRSGQAPVLVIYEDSKRPSGIPDRFSGSSSGTLATLTISGAQVEDEADYYCYSTDTIGNWVFGGGTRLTVL
Regarding B5, the binding result in [6] and in [7] was “binds” each time.

B6: TSTO1008 (antibody, V domains shown)
VH: AVQLVQSGAEVKKPGESLRISCKGSGYSFSTYWIIWVRQMPGKGLEWIGRFDPSDSYNVNSPSFQGHVTISADTSINTAYLQWSSLKASDSAMYYCARRSDKAVPGTFDQWGQGTLVTVSS
VL: RSVLTQPPSVSAAPGQKVIISCSGSSSNIGNNYVSWYQQFLGTAPKLLIYDTDKRPSGIPDRFSGSKSGTSATLGITGLQTGDEAHYYCATWDSSLRAGPVVFGGGTKLTVLG
In the case of B6, the binding result in [8] was “binds”.

B7: TSTO1004 (antibody, V domains shown)
VH: QVQLVQSGSELKKPGASVKVSCTSSGYVFTSFGVSWVRQVPGQGPEWMGWISPYTRQTKYAQSLQGRITLTADTSTNTTYMELRSLRSDDTAMYYCVREEFGVVRGPNPFDVWGQGTMVTVSS
VL: DIQMTQAPSTLSASVGDRVSITCRASQNIRDFLAWYQQKPGRAPDLLIYRASTLEKGVSARFSGSGSGTEFTLTITGLQPDDFATYYCQQYSDYSTFGGGTRVEIK
As to B7, the binding result with chymotrypsinogen B2 is “binds”.

B8: TTES1003 (antibody, V domains shown)
VH: VVQLVESGGGLVQPGGSLRLSCSASGFTFSSYAMHWVRQAPGKGLEYVSAISSNGGSTYYADSVKGRFTISRDNSKNTLYLQMSSLRAEDTAVYYCVKSPVAANDAFDIWGQGTMVTVSS
VL: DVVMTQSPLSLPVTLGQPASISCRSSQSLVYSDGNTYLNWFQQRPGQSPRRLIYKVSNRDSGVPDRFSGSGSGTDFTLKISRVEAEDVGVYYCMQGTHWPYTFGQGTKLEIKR
As for B8, the binding result with programmed cell death 1 is given as “binds”.

B9: TTES1002 (antibody, V domains shown)
VH: QVQLQESGPGLVKPSETLSLICTVSGASVNSGTHFWSWIRQPPGKGLEWIGYVYYSGNTNYNPSLKSRVAISVDTSKNQFSLKLTSVTSADTAVYYCARDFDDGYDIRYWGQGTRVSVSS
VL: QSALTQPASVSGSPGQSITISCTGSSNDIGRYKYVSWFQHHPGRAPKLIIYEVNNRPSGLSHRFSGSKSGNTASLTISGLQAEDEADYYCCSYTSSLTYVFGTGTAVTVL
With B9, the binding result in experiment [9] is on record as “binds”.

B10: TSTO1003 (antibody, V domains shown)
VH: QVQLKQSGGGVVQPGRSLTLSCVASGLTFSDYGMHWVRQAPGKGLEWVAVIWHDGSKTNYADSVKGRIIISRDNSKSTVYLQMNRLRGEDTAVYYCATSHGGLVPGGENYWGQGTLVTVSS
VL: SDELTQPPSVSVSPGQTARITCSGDALAKEYAYWYQQKSGQAPVLVISKDTERPSGIPARFSGSSSGTTVTLTISGVQSDDEADYYCQSADSSLTYWLFGGGTKLTVLR
On to B10, for which the binding result in experiment [10] is “binds”.

Source of the values: patent US20220204643A1 (published 2022).
